The supplement of paper PMC11246515
± gives the standard deviation of the averaged measurements.

Test: total protein half-life in vivo (active degradation + dilution); higher = more stable protein
[1] = E. coli NCM3722 delta-clpP delta-lon delta-hslV, growth: N-lim chemostat, doubling time 6 h
[2] = E. coli NCM3722 delta-clpP, growth: N-lim chemostat, doubling time 6 h
[3] = E. coli NCM3722 delta-hslV, growth: N-lim chemostat, doubling time 6 h
[4] = E. coli NCM3722 delta-lon, growth: N-lim chemostat, doubling time 6 h
[5] = E. coli NCM3722 delta-smpB, growth: N-lim chemostat, doubling time 6 h
[6] = wild type E. coli NCM3722, growth: C-lim chemostat, doubling time 3 h
[7] = wild type E. coli NCM3722, growth: C-lim chemostat, doubling time 6 h
[8] = wild type E. coli NCM3722, growth: C-lim chemostat, doubling time 12 h
[9] = wild type E. coli NCM3722, growth: N-lim chemostat, doubling time 6 h
[10] = wild type E. coli NCM3722, growth: N-lim chemostat, doubling time 12 h
[11] = wild type E. coli NCM3722, growth: P-lim chemostat, doubling time 6 h
[12] = wild type E. coli NCM3722, growth: P-lim chemostat, doubling time 12 h

Sequence | total protein half-life in vivo [1] | total protein half-life in vivo [2] | total protein half-life in vivo [3] | total protein half-life in vivo [4] | total protein half-life in vivo [5] | total protein half-life in vivo [6] | total protein half-life in vivo [7] | total protein half-life in vivo [8] | total protein half-life in vivo [9] | total protein half-life in vivo [10] | total protein half-life in vivo [11] | total protein half-life in vivo [12]
MKTKLNELLEFPTPFTYKVMGQALPELVDQVVEVVQRHAPGDYTPTVKPSSKGNYHSVSITINATHIEQVETLYEELGKIDIVRMVL [P0A8J4] | 3.54 ± 1.3 h | 2.19 ± 0.44 h | 1.24 h | 2.23 ± 0.17 h | 1.42 ± 0.17 h | 2.1 h | 2.72 h | 3.05 h | 1.34 h | 1.54 h | 2.04 ± 0.064 h | 3.43 ± 0.32 h
MKTKVAAIYGKRDVRLRVFELPEITDNELLVSVISDSVCLSTWKAALLGSEHKRVPDDLENHPVITGHECAGVIVEVGKNLTGKYKKGQRFVLQPAMGLPSGYSAGYSYEYFGGNATYMIIPEIAINLGCVLPYHGSYFAAASLAEPMCCIIGAYHANYHTTQYVYEHRMGVKPGGNIALLACAGPMGIGAIDYAINGGIQPSRVVVVDIDDKRLAQVQKLLPVELAASKGIELVYVNTKGMSDPVQMLRALTGDAGFDDIFVYAAVPAVVEMADELLAEDGCLNFFAGPTDKNFKVPFNFYNVHYNSTHVVGTSGGSTDDMKEAIALSATGQLQPSFMVTHIGGLDAVPETVLNLPDIPGGKKLIYNGVTMPLTAIADFAEKGKTDPLFKELARLVEETHGIWNEQAEKYLLAQFGVDIGEAAQ | 6.04 ± 0.11 h |  |  |  |  |  |  |  |  |  |  | 
MKTKVILSQQMASAIIAAGQEEAQKNNWSVSIAVADDGGHLLALSRMDDCAPIAAYISQEKARTAALGRRETKGYEEMVNNGRTAFVTAPLLTSLEGGVPVVVDGQIIGAVGVSGLTGAQDAQVAKAAAAVLAK [P0AEQ1] | 4.93 ± 0.46 h | 4.12 ± 0.23 h |  | 4.27 ± 0.26 h | 4.21 ± 0.32 h | 3.04 ± 0.057 h | 5.267 ± 0.02 h | 9.62 ± 0.24 h | 4.29 ± 0.12 h | 5.98 h | 5.43 ± 0.44 h | 11.6 ± 0.93 h
MKTLATIGDNCVDIYPQLNKAFSGGNAVNVAVYCTRYGIQPGCITWVGDDDYGTKLKQDLARMGVDISHVHTKHGVTAQTQVELHDNDRVFGDYTEGVMADFALSEEDYAWLAQYDIVHAAIWGHAEDAFPQLHAAGKLTAFDFSDKWDSPLWQTLVPHLDFAFASAPQEDETLRLKMKAIVARGAGTVIVTLGENGSIAWDGAQFWRQAPEPVTVIDTMGAGDSFIAGFLCGWSAGMTLPQAIAQGTACAAKTIQYHGAW | 5.37 h | 3.97 h | 4.2 ± 0.26 h | > 8 h | 3.48 h | 1.68 h | 3.27 h | 7.21 ± 0.47 h |  |  |  | 
MKTSDNERIKYEITGQAVLQILRMKINFSLQTLIKQLLVMKSAEEDAFRRDLIDSIIRDFSNSDSGGPNRRTATADNKSMFNGKKINRIH |  |  |  |  |  |  |  |  |  |  |  | 3.79 h
MKTSLFKSLYFQVLTAIAIGILLGHFYPEIGEQMKPLGDGFVKLIKMIIAPVIFCTVVTGIAGMESMKAVGRTGAVALLYFEIVSTIALIIGLIIVNVVQPGAGMNVDPATLDAKAVAVYADQAKDQGIVAFIMDVIPASVIGAFASGNILQVLLFAVLFGFALHRLGSKGQLIFNVIESFSQVIFGIINMIMRLAPIGAFGAMAFTIGKYGVGTLVQLGQLIICFYITCILFVVLVLGSIAKATGFSIFKFIRYIREELLIVLGTSSSESALPRMLDKMEKLGCRKSVVGLVIPTGYSFNLDGTSIYLTMAAVFIAQATNSQMDIVHQITLLIVLLLSSKGAAGVTGSGFIVLAATLSAVGHLPVAGLALILGIDRFMSEARALTNLVGNGVATIVVAKWVKELDHKKLDDVLNNRAPDGKTHELSS [P0A830] |  |  | 3.58 h |  | 4.23 h |  | 5.59 ± 0.43 h | 10.7 ± 0.59 h | 5.77 h |  | 5.05 h | 8.47 h
MKTTAKLSFMMFVEWFIWGAWFVPLWLWLSKSGFSAGEIGWSYACTAIAAILSPILVGSITDRFFSAQKVLAVLMFAGALLMYFAAQQTTFAGFFPLLLAYSLTYMPTIALTNSIAFANVPDVERDFPRIRVMGTIGWIASGLACGFLPQILGYADISPTNIPLLITAGSSALLGVFAFFLPDTPPKSTGKMDIKVMLGLDALILLRDKNFLVFFFCSFLFAMPLAFYYIFANGYLTEVGMKNATGWMTLGQFSEIFFMLALPFFTKRFGIKKVLLLGLVTAAIRYGFFIYGSADEYFTYALLFLGILLHGVSYDFYYVTAYIYVDKKAPVHMRTAAQGLITLCCQGFGSLLGYRLGGVMMEKMFAYQEPVNGLTFNWSGMWTFGAVMIAIIAVLFMIFFRESDNEITAIKVDDRDIALTQGEVK |  |  |  |  |  |  | 4.97 ± 0.24 h | 9.17 h |  |  |  | 
MKTVRESTTLYNFLGSHNPYWRLTESSDVLRFSTTETTEPDRTLQLSAEQAARIREMTVITSSLMMSLTVDESDLSVHLVGRKINKREWAGNASAWHDTPAVARDLSHGLSFAEQVVSEAHSAIVILDSRGNIQRFNRLCEDYTGLKEHDVIGQSVFKLFMSRREAAASRRNNRVFFRSGNAYEVELWIPTCKGQRLFLFRNKFVHSGSGKNEIFLICSGTDITEERRAQERLRILANTDSITGLPNRNAMQDLIDHAINHADNNKVGVVYLDLDNFKKVNDAYGHLFGDQLLRDVSLAILSCLEHDQVLARPGGDEFLVLASNTSQSALEAMASRILTRLRLPFRIGLIEVYTSCSVGIALSPEHGSDSTAIIRHADTAMYTAKEGGRGQFCVFTPEMNQRVFEYLWLDTNLRKALENDQLVIHYQPKITWRGEVRSLEALVRWQSPERGLIPPLDFISYAEESGLIVPLGRWVILDVVRQVAKWRDKGINLRVAVNISARQLADQTIFTALKQVLQELNFEYCPIDVELTESCLIENDELALSVIQQFSQLGAQVHLDDFGTGYSSLSQLARFPIDAIKLDQVFVRDIHKQPVSQSLVRAIVAVAQALNLQVIAEGVESAKEDAFLTKNGINERQGFLFAKPMPAVAFERWYKRYLKRA | 6.59 ± 1.2 h | 2.14 h | 2.36 ± 0.18 h | 3.107 ± 0.019 h | 1.94 ± 0.029 h | 1.58 ± 0.59 h | 4.6 ± 2.3 h | 5.35 h | 3.27 ± 0.56 h | 3.63 h |  | 
MKTVTVKDLVIGTGAPKIIVSLMAKDIASVKSEALAYREADFDILEWRVDHYADLSNVESVMAAAKILRETMPEKPLLFTFRSAKEGGEQAISTEAYIALNRAAIDSGLVDMIDLELFTGDDQVKETVAYAHAHDVKVVMSNHDFHKTPEAEEIIARLRKMQSFDADIPKIALMPQSTSDVLTLLAATLEMQEQYADRPIITMSMAKTGVISRLAGEVFGSAATFGAVKKASAPGQISVNDLRTVLTILHQA | 3.99 ± 0.25 h | 4.15 ± 0.66 h | 3.51 ± 0.0088 h | 4.3 ± 0.52 h | 3.62 ± 0.46 h | > 4 h | 5.56 ± 1 h | 9.4 ± 0.9 h | 3.68 ± 0.14 h | 5.5 ± 0.19 h | 5.38 ± 0.21 h | 11 ± 0.46 h
